Tested on: Escherichia coli TOP10
Test: shrunken log2 fold change of peptide-encoding DNA abundance (4.5 h post-induction vs induction); higher = less antimicrobial activity (less host growth inhibition)
Settings: time post-induction: 4.5 h; library: site-saturation at positions 5, 18, 19, 20
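Note: peptides expressed intracellularly from a pBAD plasmid library in pooled LB shake-flask culture, induced with 0.3% L-arabinose, DNA abundance read by NGS, three biological replicates, DESeq2 with apeglm shrinkage.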

Row | Sequence | shrunken log2 fold change
1 | RRIRFRPPRLPRPRPRPDTVPRP | -0.0794
2 | RRIRFRPPRLPRPRPRPDTWPRP | 0.0899
3 | RRIRFRPPRLPRPRPRPDVAPRP | 0.239
4 | RRIRFRPPRLPRPRPRPDVGPRP | -0.239
5 | RRIRFRPPRLPRPRPRPDVLPRP | -0.0865
6 | RRIRFRPPRLPRPRPRPDVRPRP | 0.0165
7 | RRIRFRPPRLPRPRPRPDYCPRP | -0.127
8 | RRIRFRPPRLPRPRPRPEAHPRP | 0.171
9 | RRIRFRPPRLPRPRPRPEAIPRP | 0.104
10 | RRIRFRPPRLPRPRPRPECIPRP | -0.04
11 | RRIRFRPPRLPRPRPRPECQPRP | -0.0729
12 | RRIRFRPPRLPRPRPRPEDSPRP | -0.00878
13 | RRIRFRPPRLPRPRPRPEEFPRP | -0.0316
14 | RRIRFRPPRLPRPRPRPEEGPRP | 0.00408
15 | RRIRFRPPRLPRPRPRPEFHPRP | -0.342
16 | RRIRFRPPRLPRPRPRPEFNPRP | -0.199
17 | RRIRFRPPRLPRPRPRPEHEPRP | 0.0369
18 | RRIRFRPPRLPRPRPRPEHQPRP | -0.1
19 | RRIRFRPPRLPRPRPRPEHYPRP | -0.101
20 | RRIRFRPPRLPRPRPRPEITPRP | -0.208
21 | RRIRFRPPRLPRPRPRPELDPRP | 0.0203
22 | RRIRFRPPRLPRPRPRPEMRPRP | 0.244
23 | RRIRFRPPRLPRPRPRPEPLPRP | 0.0513
24 | RRIRFRPPRLPRPRPRPEPPPRP | 0.702
25 | RRIRFRPPRLPRPRPRPEQFPRP | -0.115

Row | Sequence | shrunken log2 fold change
26 | RRIRFRPPRLPRPRPRPERGPRP | 0.0525
27 | RRIRFRPPRLPRPRPRPERTPRP | -0.0923
28 | RRIRFRPPRLPRPRPRPESIPRP | -0.126
29 | RRIRFRPPRLPRPRPRPESSPRP | 0.113
30 | RRIRFRPPRLPRPRPRPEWLPRP | 0.402
31 | RRIRFRPPRLPRPRPRPEWNPRP | -0.21
32 | RRIRFRPPRLPRPRPRPEYFPRP | 0.186
33 | RRIRFRPPRLPRPRPRPEYHPRP | -0.202
34 | RRIRFRPPRLPRPRPRPFAIPRP | -0.109
35 | RRIRFRPPRLPRPRPRPFAQPRP | -0.263
36 | RRIRFRPPRLPRPRPRPFARPRP | -0.115
37 | RRIRFRPPRLPRPRPRPFCIPRP | -0.518
38 | RRIRFRPPRLPRPRPRPFEAPRP | -0.105
39 | RRIRFRPPRLPRPRPRPFEFPRP | -0.183
40 | RRIRFRPPRLPRPRPRPFERPRP | -0.0442
41 | RRIRFRPPRLPRPRPRPFGFPRP | -0.436
42 | RRIRFRPPRLPRPRPRPFGHPRP | -0.19
43 | RRIRFRPPRLPRPRPRPFGPPRP | -0.159
44 | RRIRFRPPRLPRPRPRPFIAPRP | -0.489
45 | RRIRFRPPRLPRPRPRPFKGPRP | -0.23
46 | RRIRFRPPRLPRPRPRPFLEPRP | -0.355
47 | RRIRFRPPRLPRPRPRPFNFPRP | -1.17
48 | RRIRFRPPRLPRPRPRPFNWPRP | -0.975
49 | RRIRFRPPRLPRPRPRPFQMPRP | -0.647
50 | RRIRFRPPRLPRPRPRPFRKPRP | -0.122

Row | Sequence | shrunken log2 fold change
51 | RRIRFRPPRLPRPRPRPGAMPRP | 0.0505
52 | RRIRFRPPRLPRPRPRPGDIPRP | 0.0113
53 | RRIRFRPPRLPRPRPRPGFLPRP | -0.296
54 | RRIRFRPPRLPRPRPRPGFSPRP | -0.407
55 | RRIRFRPPRLPRPRPRPGFYPRP | -0.28
56 | RRIRFRPPRLPRPRPRPGIAPRP | -0.15
57 | RRIRFRPPRLPRPRPRPGIMPRP | -0.124
58 | RRIRFRPPRLPRPRPRPGLGPRP | 0.603
59 | RRIRFRPPRLPRPRPRPGMKPRP | -0.0551
60 | RRIRFRPPRLPRPRPRPGNEPRP | -0.00911
61 | RRIRFRPPRLPRPRPRPGREPRP | 0.0157
62 | RRIRFRPPRLPRPRPRPGRNPRP | -0.173
63 | RRIRFRPPRLPRPRPRPGSEPRP | -0.0634
64 | RRIRFRPPRLPRPRPRPGSGPRP | 0.161
65 | RRIRFRPPRLPRPRPRPGSPPRP | 0.206
66 | RRIRFRPPRLPRPRPRPGTKPRP | 0.478
67 | RRIRFRPPRLPRPRPRPGWRPRP | 0.536
68 | RRIRFRPPRLPRPRPRPGYVPRP | -0.116
69 | RRIRFRPPRLPRPRPRPHCDPRP | -0.252
70 | RRIRFRPPRLPRPRPRPHCNPRP | -0.548
71 | RRIRFRPPRLPRPRPRPHECPRP | 0.0366
72 | RRIRFRPPRLPRPRPRPHETPRP | -0.347
73 | RRIRFRPPRLPRPRPRPHFTPRP | -0.489
74 | RRIRFRPPRLPRPRPRPHHFPRP | -0.053
75 | RRIRFRPPRLPRPRPRPHHPPRP | -0.374

Row | Sequence | shrunken log2 fold change
76 | RRIRFRPPRLPRPRPRPHIEPRP | -0.0641
77 | RRIRFRPPRLPRPRPRPHKLPRP | -0.377
78 | RRIRFRPPRLPRPRPRPHKMPRP | -0.154
79 | RRIRFRPPRLPRPRPRPHLFPRP | -0.238
80 | RRIRFRPPRLPRPRPRPHLWPRP | 0.185
81 | RRIRFRPPRLPRPRPRPHMAPRP | -0.429
82 | RRIRFRPPRLPRPRPRPHMGPRP | -0.292
83 | RRIRFRPPRLPRPRPRPHNYPRP | -0.633
84 | RRIRFRPPRLPRPRPRPHQFPRP | -0.343
85 | RRIRFRPPRLPRPRPRPHQTPRP | 0.0857
86 | RRIRFRPPRLPRPRPRPHREPRP | -0.0534
87 | RRIRFRPPRLPRPRPRPHRTPRP | -0.18
88 | RRIRFRPPRLPRPRPRPHRWPRP | -0.17
89 | RRIRFRPPRLPRPRPRPHTEPRP | -0.731
90 | RRIRFRPPRLPRPRPRPHTQPRP | -0.225
91 | RRIRFRPPRLPRPRPRPHWDPRP | -0.21
92 | RRIRFRPPRLPRPRPRPHWLPRP | -0.066
93 | RRIRFRPPRLPRPRPRPHYWPRP | -0.505
94 | RRIRFRPPRLPRPRPRPIAKPRP | -0.181
95 | RRIRFRPPRLPRPRPRPIESPRP | -0.15
96 | RRIRFRPPRLPRPRPRPIFPPRP | -0.222
97 | RRIRFRPPRLPRPRPRPIGPPRP | 0.0274
98 | RRIRFRPPRLPRPRPRPIHLPRP | -0.154
99 | RRIRFRPPRLPRPRPRPIIHPRP | -0.795
100 | RRIRFRPPRLPRPRPRPIKMPRP | -0.243

Row | Sequence | shrunken log2 fold change
101 | RRIRFRPPRLPRPRPRPIMSPRP | -0.0555
102 | RRIRFRPPRLPRPRPRPIPLPRP | -0.483
103 | RRIRFRPPRLPRPRPRPIQHPRP | -0.196
104 | RRIRFRPPRLPRPRPRPIQNPRP | -0.544
105 | RRIRFRPPRLPRPRPRPIRIPRP | -0.223
106 | RRIRFRPPRLPRPRPRPIRWPRP | 0.0239
107 | RRIRFRPPRLPRPRPRPITCPRP | -1.15
108 | RRIRFRPPRLPRPRPRPITKPRP | -0.0304
109 | RRIRFRPPRLPRPRPRPITPPRP | -0.128
110 | RRIRFRPPRLPRPRPRPIVEPRP | 0.0776
111 | RRIRFRPPRLPRPRPRPIVKPRP | -0.395
112 | RRIRFRPPRLPRPRPRPIVMPRP | -0.731
113 | RRIRFRPPRLPRPRPRPIVNPRP | 0.00221
114 | RRIRFRPPRLPRPRPRPIWMPRP | -0.226
115 | RRIRFRPPRLPRPRPRPIWTPRP | -0.0298
116 | RRIRFRPPRLPRPRPRPIYCPRP | -0.0425
117 | RRIRFRPPRLPRPRPRPIYHPRP | -0.701
118 | RRIRFRPPRLPRPRPRPIYPPRP | -0.574
119 | RRIRFRPPRLPRPRPRPIYVPRP | -0.871
120 | RRIRFRPPRLPRPRPRPKCCPRP | -0.149
121 | RRIRFRPPRLPRPRPRPKCDPRP | -0.136
122 | RRIRFRPPRLPRPRPRPKCGPRP | 0.0559
123 | RRIRFRPPRLPRPRPRPKDLPRP | 0.0796
124 | RRIRFRPPRLPRPRPRPKDMPRP | -0.0249
125 | RRIRFRPPRLPRPRPRPKEFPRP | -0.0812

Row | Sequence | shrunken log2 fold change
126 | RRIRFRPPRLPRPRPRPKFQPRP | -0.14
127 | RRIRFRPPRLPRPRPRPKFRPRP | -0.0326
128 | RRIRFRPPRLPRPRPRPKGIPRP | -0.0392
129 | RRIRFRPPRLPRPRPRPKGPPRP | 0.0269
130 | RRIRFRPPRLPRPRPRPKGTPRP | -0.429
131 | RRIRFRPPRLPRPRPRPKGWPRP | 0.589
132 | RRIRFRPPRLPRPRPRPKHQPRP | -0.131
133 | RRIRFRPPRLPRPRPRPKHWPRP | 0.0787
134 | RRIRFRPPRLPRPRPRPKILPRP | 0.205
135 | RRIRFRPPRLPRPRPRPKISPRP | -0.596
136 | RRIRFRPPRLPRPRPRPKKFPRP | -0.128
137 | RRIRFRPPRLPRPRPRPKKYPRP | -0.242
138 | RRIRFRPPRLPRPRPRPKMIPRP | -0.618
139 | RRIRFRPPRLPRPRPRPKMPPRP | -0.0572
140 | RRIRFRPPRLPRPRPRPKMRPRP | 0.223
141 | RRIRFRPPRLPRPRPRPKNGPRP | -0.0366
142 | RRIRFRPPRLPRPRPRPKNNPRP | -0.504
143 | RRIRFRPPRLPRPRPRPKNRPRP | -0.284
144 | RRIRFRPPRLPRPRPRPKQPPRP | 0.137
145 | RRIRFRPPRLPRPRPRPKRWPRP | 0.0556
146 | RRIRFRPPRLPRPRPRPKTSPRP | -0.0999
147 | RRIRFRPPRLPRPRPRPKTWPRP | 0.157
148 | RRIRFRPPRLPRPRPRPKWYPRP | -0.388
149 | RRIRFRPPRLPRPRPRPKYCPRP | 0.124
150 | RRIRFRPPRLPRPRPRPKYVPRP | -0.594

Source: the supplement of paper PMC9112550, “Optimization of the antimicrobial peptide Bac7 by deep mutational scanning” (BMC Biology, 2022)
